Laboratory results taken from US20180111972A1 (Stanford University, published 2018).
Substitutions are numbered along the chain they refer to. Names and notes keep the numbering of the source.

Columns and labels:
[1] = molecular target: T1, soluble VEGFR2 (Fc or His format not stated for the experiment) (human, UniProt P35968 20-764); assay: yeast surface display, flow cytometry dot plot: soluble receptor bound (FL1) against surface expression (FL2); receptor concentration not given
T1 construct: extracellular domain

[2] = molecular target: T2, VEGFR2-His (residues 1-764 of VEGFR2, Ig-like domains 1-7, with hexahistidine tag) (human, UniProt P35968 20-764); assay: KinExA Kinetics Injection
T2 construct: range 1-764; Monomeric form, expressed in FreeStyle 293-F cells; also called VEGFR-His
Description: (§1) Additionally, the kinetic parameter kₒₙ can be determined by using a “kinetics injection” experiment. A constant concentration of PDGF/VEGF ligand is injected with an equal volume of differing concentrations of PDGRβ-His or VEGFR2-His. The two solutions are allowed to mix briefly (several seconds) in the time required for the instrument to deliver the mixture to the detection bead column. The pre-equilibrium concentrations of free ligand is fit to the standard bimolecular rate equation to obtain kₒₙ.
(§2) Kinetic Exclusion Assay (KinExA). All experiments were performed on a KinExA 3200 instrument with siliconized flow cell (Sapidyne Instruments Inc). […] 30 μg of receptor was incubated in 1 ml of 50 mM sodium bicarbonate, 0.5 M sodium citrate buffer, pH 8.3, for 2 hr at room temperature with rocking. Beads were allowed to settle by gravity and liquid removed. Beads were blocked by incubating in 1 ml of 10 mg/ml BSA in 1 M Tris buffer, pH 8.0, for 1 hr at room temperature with rocking, and stored in blocking buffer at 4° C. for up to one week until use. Running buffer contained PBS with 10 mM imidazole and 0.02% sodium azide. Samples were prepared in running buffer with 1 mg/ml BSA. Binding reactions were prepared with a fixed concentration of PDGF/VEGF ligands and dilution series of PDGFR or VEGFR. Captured PDGF/VEGF ligands were detected using a Dylight 649-conjugated anti-FLAG antibody (Rockland) at 1:1000 dilution in sample buffer. Kinetic experiments were performed with the “Kinetics Injection” method defined in the KinExA software. Data were analyzed with KinExA Pro Software. The Kd was determined from a global fit of two concentration curves using the “n-curve analysis” tool and the titrant concentrations as reference. […] The kₒₙ was calculated as a fit of the pre-equilibrium free ligand concentrations to the bimolecular binding equation using the “Kinetics Injection” tool.

[3] = molecular target: T3, PDGFRβ-His (residues 1-314 of PDGFR-β with C-terminal hexahistidine tag) (human, UniProt P09619 33-314); assay: KinExA Kinetics Injection
T3 construct: range 1-314; Monovalent form, expressed in FreeStyle 293-F cells; also called PDGRβ-His; PDGFR-His
Description: as §1, §2

[4] = molecular target: T4, human VEGFR on human umbilical vein endothelial cells (HUVECs) (human, UniProt P35968 20-1356); assay: flow cytometry on HUVECs, soluble ligand titrated 3 h at 4 C, anti-FLAG-PE
T4 construct: The phosphorylation blots on these cells detect VEGFR2
Description: (§3) To test binding to VEGFR, human umbilical vein endothelial cells (HUVECs) and murine angiosarcoma endothelial cells (SVR) were used.
(§4) Cell-binding assay. Varying concentrations of scPDGF, scVEGF, and PDGF/VEGF ligands were incubated with 25,000 PDGFR- or VEGFR-expressing cells in binding buffer (20 mM Tris pH 7.5 with 1 mM MgCl₂, 1 mM MnCl₂, 2 mM CaCl₂, 100 mM NaCl, and 1 mg/ml BSA) for 5 hr (BJ-5ta, NIH/3T3) or 3 hr (HUVEC, SVR) at 4° C. Cells were washed and pelleted, then incubated with 1:100 R-PE-conjugated anti-FLAG antibody (Prozyme) for 15 min on ice. Cells were washed, pelleted, and resuspended in binding buffer immediately before analysis by flow cytometry using BD Accuri C6. Flow cytometry data were analyzed using BD Accuri C6 software, and statistical analysis was performed using GraphPad Prism 6.

[5] = molecular target: T2, VEGFR2-His (residues 1-764 of VEGFR2, …); assay: KinExA, calculated from Kd and kon
Description: (§5) By performing two experiments with fixed ligand concentrations above and below the Kd, and fitting both sets of data with a nonlinear regression analysis, a more accurate measurement for the affinity can be obtained.
as §1, §2

[6] = molecular target: T3, PDGFRβ-His (residues 1-314 of PDGFR-β …); assay: KinExA, calculated from Kd and kon
Description: as §5, §1, §2

[7] = molecular target: T2, VEGFR2-His (residues 1-764 of VEGFR2, …); assay: KinExA, equilibrium titration in solution, n-curve analysis
Description: (§6) For KinExA measurements, a constant amount of PDGF/VEGF ligand is titrated with differing concentrations of PDGRβ-His or VEGFR2-His. The solutions are incubated for an appropriate amount of time to allow the ligand-receptor binding reaction to reach equilibrium. The solution is then briefly exposed to a solid support containing immobilized PDGFR or VEGFR, which captures unbound ligand. The amount of ligand bound to the solid support is then detected using a fluorescently-labeled antibody. […] For each binding interaction measured, curves for two concentrations of the constant ligand are performed. By performing two experiments with fixed ligand concentrations above and below the Kd, and fitting both sets of data with a nonlinear regression analysis, a more accurate measurement for the affinity can be obtained.
(§7) Kinetic Exclusion Assay (KinExA). All experiments were performed on a KinExA 3200 instrument with siliconized flow cell (Sapidyne Instruments Inc). […] 30 μg of receptor was incubated in 1 ml of 50 mM sodium bicarbonate, 0.5 M sodium citrate buffer, pH 8.3, for 2 hr at room temperature with rocking. Beads were allowed to settle by gravity and liquid removed. Beads were blocked by incubating in 1 ml of 10 mg/ml BSA in 1 M Tris buffer, pH 8.0, for 1 hr at room temperature with rocking, and stored in blocking buffer at 4° C. for up to one week until use. Running buffer contained PBS with 10 mM imidazole and 0.02% sodium azide. Samples were prepared in running buffer with 1 mg/ml BSA. Binding reactions were prepared with a fixed concentration of PDGF/VEGF ligands and dilution series of PDGFR or VEGFR. Captured PDGF/VEGF ligands were detected using a Dylight 649-conjugated anti-FLAG antibody (Rockland) at 1:1000 dilution in sample buffer. Kinetic experiments were performed with the “Kinetics Injection” method defined in the KinExA software. Data were analyzed with KinExA Pro Software.

[8] = molecular target: T3, PDGFRβ-His (residues 1-314 of PDGFR-β …); assay: as above
Description: as §6, §7

[9] = molecular target: T4, human VEGFR on human umbilical vein …; assay: flow cytometry titration of the soluble FLAG-tagged protein on HUVECs, anti-FLAG detection
Description: as §3, §4

[10] = molecular target: T5, soluble PDGFRβ (Fc or His format not stated for the experiment) (human, UniProt P09619 33-532); assay: yeast surface display, flow cytometry titration of soluble receptor; panel 'PDGFR binding', Fc or His form not given
T5 construct: extracellular domain

[11] = molecular target: T3, PDGFRβ-His (residues 1-314 of PDGFR-β …); assay: yeast surface display titration, flow cytometry
Description: (§8) Cells were incubated in large enough volumes to avoid ligand depletion and appropriate time to reach equilibrium. During the last hour of incubation, yeast were incubated with 1:250 dilution of chicken anti-c-Myc (Invitrogen) in PBSA. […] Yeast were washed, pelleted, and resuspended in PBSA immediately before analysis by flow cytometry using BD FACSCalibur or BD Accuri C6. Flow cytometry data were analyzed using FlowJo (v7.6.1 and v10, Treestar) or BD Accuri C6 software. Statistical analysis was performed using GraphPad Prism 6.

[12] = molecular target: T5, soluble PDGFRβ (Fc or His format not …); assay: yeast surface display titration; table under the panel 'PDGFR binding', Fc or His form not given
VEGFR2-Fc (R&D Systems) = molecular target: T6, VEGFR2-Fc (R&D Systems) (human, UniProt P35968 20-764); assay: yeast surface display, flow cytometry: VEGFR2-Fc bound, with and without pre-incubation with 100 nM PDGFRβ-Fc
T6 construct: extracellular domain; Bought reagent; also called VEGFR-Fc; not shown: Fc part, detected with anti-human-IgG (Fc specific)
Description: as §8

[13] = molecular target: T3, PDGFRβ-His (residues 1-314 of PDGFR-β …); assay: yeast surface display, flow cytometry titration of PDGFRβ-His (panel 'PDGFRβ binding')
Description: as §8

[14] = molecular target: T2, VEGFR2-His (residues 1-764 of VEGFR2, …); assay: yeast surface display titration, flow cytometry
Description: as §8

[15] = molecular target: T1, soluble VEGFR2 (Fc or His format not …); assay: yeast surface display titration; table under the panel 'VEGFR binding', Fc or His form not given
scPDGF, yeast-displayed = molecular target: T7, scPDGF, yeast-displayed (human); assay: yeast surface display of scPDGF, flow cytometry titration of PDGFRβ-Fc, anti-mouse-Fc detection
T7 chain: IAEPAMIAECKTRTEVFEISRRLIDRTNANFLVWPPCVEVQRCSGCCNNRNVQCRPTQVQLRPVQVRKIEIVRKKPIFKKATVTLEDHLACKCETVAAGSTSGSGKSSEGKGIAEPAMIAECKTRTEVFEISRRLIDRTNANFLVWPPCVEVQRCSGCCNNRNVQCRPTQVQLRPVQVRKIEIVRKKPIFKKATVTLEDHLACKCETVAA
Description: as §8
Bound protein was detected using fluorescently-labeled anti-His and anti-mouse-Fc antibodies.

[16] = molecular target: T8, scPDGF, single-chain version of wild-type PDGF-BB, soluble, FLAG and hexahistidine tags (human); assay: cell-based or functional assay
T8 chain: T7 chain

T2 sequence (P35968 other isoform, or with tags, fused parts or gaps limits assumed, form in doubt): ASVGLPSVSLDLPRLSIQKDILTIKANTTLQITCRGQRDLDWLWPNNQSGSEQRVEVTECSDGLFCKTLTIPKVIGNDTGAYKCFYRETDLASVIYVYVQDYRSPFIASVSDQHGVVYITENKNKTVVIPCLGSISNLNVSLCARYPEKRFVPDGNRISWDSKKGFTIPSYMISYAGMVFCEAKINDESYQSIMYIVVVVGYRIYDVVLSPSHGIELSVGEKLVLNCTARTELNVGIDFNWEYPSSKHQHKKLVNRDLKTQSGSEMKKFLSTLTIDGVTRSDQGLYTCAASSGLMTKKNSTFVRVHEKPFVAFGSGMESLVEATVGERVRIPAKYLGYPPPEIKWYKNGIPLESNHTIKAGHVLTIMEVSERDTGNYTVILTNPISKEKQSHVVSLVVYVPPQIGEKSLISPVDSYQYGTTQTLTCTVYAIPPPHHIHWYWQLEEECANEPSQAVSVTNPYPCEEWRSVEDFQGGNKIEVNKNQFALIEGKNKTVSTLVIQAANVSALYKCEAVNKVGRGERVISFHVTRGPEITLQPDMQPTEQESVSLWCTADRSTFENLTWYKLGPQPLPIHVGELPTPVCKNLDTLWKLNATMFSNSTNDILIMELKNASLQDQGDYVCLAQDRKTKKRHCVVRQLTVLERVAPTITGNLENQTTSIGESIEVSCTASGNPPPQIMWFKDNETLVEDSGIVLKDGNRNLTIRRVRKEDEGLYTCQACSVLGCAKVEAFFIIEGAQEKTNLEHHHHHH
T4 sequence (P35968 20-1356 limits assumed): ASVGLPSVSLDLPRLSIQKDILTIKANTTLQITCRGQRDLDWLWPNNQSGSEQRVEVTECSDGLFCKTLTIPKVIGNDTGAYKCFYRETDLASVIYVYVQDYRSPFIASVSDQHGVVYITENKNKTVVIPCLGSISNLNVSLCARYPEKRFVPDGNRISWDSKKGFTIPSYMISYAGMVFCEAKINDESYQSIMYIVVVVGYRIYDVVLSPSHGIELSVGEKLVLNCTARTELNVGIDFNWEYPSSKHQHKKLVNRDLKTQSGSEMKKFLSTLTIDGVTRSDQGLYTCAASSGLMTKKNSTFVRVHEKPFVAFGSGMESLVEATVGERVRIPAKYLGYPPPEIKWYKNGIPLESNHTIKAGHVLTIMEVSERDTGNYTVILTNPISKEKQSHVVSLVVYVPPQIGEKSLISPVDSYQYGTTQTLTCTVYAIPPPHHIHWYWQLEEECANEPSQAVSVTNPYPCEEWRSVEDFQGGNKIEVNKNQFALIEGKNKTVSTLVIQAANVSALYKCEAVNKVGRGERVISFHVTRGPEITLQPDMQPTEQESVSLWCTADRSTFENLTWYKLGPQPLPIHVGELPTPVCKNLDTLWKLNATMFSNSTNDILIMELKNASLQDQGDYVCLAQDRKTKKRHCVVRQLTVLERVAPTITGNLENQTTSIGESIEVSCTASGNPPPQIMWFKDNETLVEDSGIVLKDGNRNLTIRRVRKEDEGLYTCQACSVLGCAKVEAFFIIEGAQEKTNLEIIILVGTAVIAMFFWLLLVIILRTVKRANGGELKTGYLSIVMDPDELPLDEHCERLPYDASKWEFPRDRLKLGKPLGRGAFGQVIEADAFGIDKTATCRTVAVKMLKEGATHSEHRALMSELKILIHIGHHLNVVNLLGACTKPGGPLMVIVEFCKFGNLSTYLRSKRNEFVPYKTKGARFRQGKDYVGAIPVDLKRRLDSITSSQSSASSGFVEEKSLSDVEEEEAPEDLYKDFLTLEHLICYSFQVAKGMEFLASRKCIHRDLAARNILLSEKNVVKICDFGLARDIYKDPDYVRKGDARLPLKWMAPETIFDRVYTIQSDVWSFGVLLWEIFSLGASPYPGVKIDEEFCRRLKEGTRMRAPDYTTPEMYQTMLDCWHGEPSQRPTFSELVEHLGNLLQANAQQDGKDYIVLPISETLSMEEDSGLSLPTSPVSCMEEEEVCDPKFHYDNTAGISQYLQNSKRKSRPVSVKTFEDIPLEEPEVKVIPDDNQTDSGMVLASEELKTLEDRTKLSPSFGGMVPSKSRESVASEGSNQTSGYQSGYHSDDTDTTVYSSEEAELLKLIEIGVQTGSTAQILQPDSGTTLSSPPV
T1 sequence (P35968 20-764): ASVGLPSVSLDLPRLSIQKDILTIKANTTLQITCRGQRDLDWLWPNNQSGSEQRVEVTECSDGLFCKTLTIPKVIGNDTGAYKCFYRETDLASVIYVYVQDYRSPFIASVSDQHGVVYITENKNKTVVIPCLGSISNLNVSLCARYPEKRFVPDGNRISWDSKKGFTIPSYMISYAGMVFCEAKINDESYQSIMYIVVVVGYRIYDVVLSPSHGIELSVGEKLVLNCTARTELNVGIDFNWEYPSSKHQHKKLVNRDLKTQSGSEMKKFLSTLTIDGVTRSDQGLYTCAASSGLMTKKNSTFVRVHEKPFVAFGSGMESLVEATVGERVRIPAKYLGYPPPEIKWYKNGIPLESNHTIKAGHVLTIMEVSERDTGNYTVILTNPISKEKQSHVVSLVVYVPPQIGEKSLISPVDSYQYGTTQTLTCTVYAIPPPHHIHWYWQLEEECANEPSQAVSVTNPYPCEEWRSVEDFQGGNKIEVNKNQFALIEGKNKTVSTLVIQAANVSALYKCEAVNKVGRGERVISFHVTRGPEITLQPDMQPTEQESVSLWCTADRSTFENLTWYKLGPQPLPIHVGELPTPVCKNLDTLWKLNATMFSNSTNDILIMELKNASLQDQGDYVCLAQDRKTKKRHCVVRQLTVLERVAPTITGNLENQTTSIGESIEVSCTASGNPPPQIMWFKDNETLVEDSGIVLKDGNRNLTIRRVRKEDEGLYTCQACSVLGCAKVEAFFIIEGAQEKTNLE
T6 sequence (P35968 20-764): as above

B1: PV1 PDGF/VEGF hybrid construct, yeast-displayed (designed binder)
chain: IAEPAMIAECKTRETLVDIFQEYPDEIEYIFKPSCVPLMRCSGCCNNRNVQCRPTEESNITMQIMRIKPHQGQHIGEMSFLQHLACKCETVAAGSTSGSGKSSEGKGEVVKFMDVYQRSYCHPITEVFEISRRLIDRTNANFLVWPPCVEVQRCGGCCNDEGLECVPTQVQLRPVQVRKIEIVRKKPIFKKATVTLEDHNKCECRPKKD
- binding result [1]: binds

B2: PV6 PDGF/VEGF chimera, soluble, N-terminal FLAG and C-terminal hexahistidine tags (designed binder)
chain: DYKDDDDKIAEPAMIAECHPIETLVDIFQEYPDEIEYIFKPSCVPLMRCGGCCNNRNVQCRPTEESNITMQIMRIKPHQGQHIGEMSFLQHNKCKCETVAAGSTSGSGKSSEGKGEVVKFMDVYQRSYCKTRTEVFEISRRLIDRTNANFLVWPPCVEVQRCSGCCNDEGLECVPTQVQLRPVQVRKIEIVRKKPIFKKATVTLEDHLACKCRPKKDHHHHHH
notes: Secreted from S. cerevisiae YVH10 and treated with Endo Hf; also called soluble PV6
- kon [2]: 240000 M⁻¹ s⁻¹
- kon [3]: 2.2e+07 M⁻¹ s⁻¹
- Kd [4]: 11 nM
- koff [5]: 0.0092 s⁻¹
- koff [6]: 0.019 s⁻¹
- Kd [7]: 38 nM
- Kd [8]: 0.87 nM
- EC50 (read off the curve) [9]: ~10 nM

B3: PVRF (PV6 with K87R and I182F), yeast-displayed (designed binder)
chain: IAEPAMIAECHPIETLVDIFQEYPDEIEYIFKPSCVPLMRCGGCCNNRNVQCRPTEESNITMQIMRIKPHQGQHIGEMSFLQHNKCRCETVAAGSTSGSGKSSEGKGEVVKFMDVYQRSYCKTRTEVFEISRRLIDRTNANFLVWPPCVEVQRCSGCCNDEGLECVPTQVQLRPVQVRKIEFVRKKPIFKKATVTLEDHLACECRPKKD
- EC50 (read off the curve) [10]: ~0.2 nM
- Kd [11]: 0.37 nM
- Kd [12]: 0.24 nM
- binding result (VEGFR2-Fc (R&D Systems)): binds
- EC50 (read off the curve) [13]: ~0.3 nM

B4: V4-22 (PV6 with F20L, E28G, Q71R, D160H), yeast-displayed (designed binder)
chain: B3 chain with F20L, E28G, Q71R, R87K, D160H, F182I
notes: Variant from the Vshuf library
- Kd [14]: 1.3 nM
- Kd [15]: 1.9 nM

B5: PDGFRβ-Fc (residues 1-314 of PDGFR-β fused to the Fc region of mouse IgG2a) (Fc fusion)
chain: LVVTPPGPELVLNVSSTFVLTCSGSAPVVWERMSQEPPQEMAKAQDGTFSSVLTLTNLTGLDTGEYFCTHNDSRGLETDERKRLYIFVPDPTVGFLPNDAEELFIFLTEITEITIPCRVTDPQLVVTLHEKKGDVALPVPYDHQRGFSGIFEDRSYICKTTIGDREVDSDAYYVYRLQVSSINVSVNAVQTVVRQGENITLMCIVIGNEVVNFEWTYPRKESGRLVEPVTDFLLDMPYHIRSILHIPSAELEDSGTYTCNVTESVNDHQDEKAINITVVESG
notes: range 1-314; Expressed in FreeStyle 293-F cells; also called PDGRβ-Fc; PDGFR-Fc; not shown: Fc region of mouse IgG2a
- EC50 (read off the curve) (scPDGF, yeast-displayed): ~0.03 nM
- IC50 of inhibition of NIH/3T3 proliferation stimulated by scPDGF, alamarBlue [16]: 8.7 nM
- IC50 of inhibition of stimulation by 100 pM scPDGF, PathHunter reporter cells [16]: 130 pM
